Test results as given in patent US20260258115A1 (MAPP BIOPHARMACEUTICAL, published 2026).

What was measured:
Experiment in all cases: BLI, IgG
[1] = target: RSV prefusion F (preF), subtype A (respiratory syncytial virus, subtype A, UniProt P03420 26-513)
[2] = target: T1, RSV postfusion F (postF), subtype A (respiratory syncytial virus, subtype A, UniProt P03420 26-513)
T1 construct: also called F ΔFP; Postfusion subtype A

[3] = target: RSV prefusion F (preF), subtype B (respiratory syncytial virus, subtype B)
[4] = target: T2, RSV postfusion F (postF), subtype B (respiratory syncytial virus, subtype B)
T2 construct: also called F ΔFP; Postfusion subtype B

Binder	Kd [1]	Kd [2]	Kd [3]	Kd [4]	binding result [1]
ADI-21004 (antibody, V domains shown) VH: QVQLQESGGGVVQPGRSLTLSCAASGFTFSSYGMHWVRQAPGKGLDWVAEIWYDGSNKYYVDSVKGRFTISRDNSKNTLYLQMKSLRAEDTAIYYCARDGGYESPFFDKWGQGTLVTVSS VL: EIVMTQSPDSLGVSLGERATINCKSSQSLYTSNHENSLAWYQQKPGQPPRLLIYWASTRELGVPDRFSGSGSGTDFTLTISSLQAEDVAVYYCQQYHTTPLTFGPGTKVEIK	4.59 nM	0.54 nM	10.2 nM	0.798 nM	
ADI-21003 (antibody, V domains shown) VH: QVQLQQWGAGLLKPSETLSLSCAVSGGSFSGYYWTWIRQPPGKGLEWIGEINHSGSTNYNPSLKSRVTISVDTSKNQFSLKLSSVTAADTAVYYCARARYFDYLAHWSFDLWGRGTLVTVSS VL: not shown	4.75 nM	0.44 nM	0.987 nM	0.421 nM	
ADI-21001 (antibody, V domains shown) VH: EVQLVESGPGLVKPSETLSLTCTVSGGSISDIDYYWGWIRQPPGKGLEWIGSIYYSGSTYYNPSLESRVTISVDTSKNQFSLKLRSVSAADTALYHCARHGPPWVVTAIRGHAFDVWGQGTTVTVSS VL: not shown	2.12 nM	0.277 nM	1.85 nM	0.302 nM	
ADI-21002 (antibody, V domains shown) VH: QVQLVESGPGLVKPSGTLSLTCAVSGDSINSGNWWNWVRQAPGKGLEWIGEIYHRGTSNYNPSLKSRVTISVDQSKNQFSLKVTSLTAADTAIYYCARARGYSSGPSYYYYLDVWGKGTLVTVSS VL: EIVMTQSPSSLSASVGDRVTISCRASQSISTYLNWYQQKPGKAPKVIIYGASNLQSGVPSRFSGSGSGTDFTLTISSLQPEDFATYYCQKSFNPCVFGQGTKVDIK	2.36 nM	0.214 nM	8.6 nM	6.39 nM	
ADI-21043 (antibody, V domains shown) VH: QVQLVQSGAEVKKPGASVKVSCKASGYTFTSYGITWVRQAPGQGLEWMGWISTYNGKTNYAQKFKGRVTMTTDTSTSTAYVELTSLRSDDTAVYYCAREFPTRIVDSFYMDVWGKGTTVTVSS VL: SYELTQPPSVSVAPGQTARITCGGSNIGSETVHWYQQKPGQAPVLVVYGDSDRPSGIPERFSGSNSGNTATLTISRVEAGDEADYYCQVWDSRSDDFHVFGSGTKLTVL	0.111 nM	1.65 nM	0.154 nM	1.93 nM	
ADI-21000 (antibody, V domains shown) VH: EVQLVESGPVLVKPRGTLTLTCTVSGFSLSDARMGVSWIRQPPGKALEWLAHIFWDDEKSYSTSLKNRLTISKDTSRGQVVLRMTNMDPVDTGTYFCARVNTYHSGGYYLYYFDVWGQGTLVTVSS VL: EIVLTQSPSSLSASVGDRVTITCRASQIIASYLNWYQQKPGQAPKLLIYAASSLQSGVPSRFSGSGSGTDFTLTISSLQPEDFATYYCQQSYSTRMYTFGQGTKVEIK	1.49 nM	0.295 nM	1.3 nM	0.602 nM	
ADI-21042 (antibody, V domains shown, also called Ab 290) VH: EVQLVESGPRLVKPSQTLSLTCNVSGVPVNTGGYYWSWIRRHPIKGLEWIGYIYYSGSTHYNPSLRGRATMSVDTSKNQFSLRLSSVTAADTAVYYCAKDTITVLRGVAKKGVFDPWGQGILVTVSS VL: DIQMTQSPSTLSASVGDRVIITCRASQSISSWLAWYQYKPGKAPNLLIYKATTLDSGVPSRFSGSGSGTEFTLTISSLQPDDFATYYCQQYDSYPTFGQGTKVEIK	2.96 nM	0.287 nM	1.18 nM	0.398 nM	
ADI-21026 (antibody, V domains shown) VH: QVQLVQSGPGLVKPSQTLSLTCTVSGVSISSGGFYWSWIRQHPGKGLEWIGHIYYSRSTYYNPSLKSRVTMSLNMSKNQFSLRLSSVTAADTAVYYCARERREWLHGELDYWGQGTTVTVSS VL: DIQMTQSPDSLAVSLGEGATINCKSSQSVLDSSKNKNYLAWYQQRPGQPPKLLISWASTRESGVPDRFSGSGSGTDFTLTISSLQAEDVAVYSCQQYFSPPATFGQGTKLEIK	6.35 nM	0.945 nM	3.99 nM	1.43 nM	
ADI-21037 (antibody, V domains shown) VH: QVQLVQSGGGVVQPGRSLRLSCAASGFPFSSYAMHWVRQAPGKGLEWVAVIWYPGGEKYSADSVTGRFTISRDNSKNTLYLQMSSLRVEDTAVYYCARRSVGAFDYWGQGTLVTVSS VL: DIQMTQSPLSLPVTPGEPASISCRSSQSLLNSNGYNYLDWYLQKPGQSPQVLIYLGSHRASGVPDRFSGSGSGTDFTLRISRVEAEDVGVYYCMQAVQTPYTFGQGTKVEIK	1.95 nM	0.248 nM	4.81 nM	3.17 nM	
ADI-21011 (antibody, V domains shown) VH: QVQLQESGPGLVKPSETLSLSCTASGDSISDYYWSWIRQPPGKGLEWIGFVSDTWGTNYSPSLTSRVAISLDTSRSQVSLRLRSVTAADTAVYYCVRTHLYDRGGYYLYYFDYWGQGTLVTVSS VL: DIRMTQSPPSLSASVGDRVTITCRASQRIASYLNWYQQKPDTAPKLLIYAASNLQTGVPSRFSGSGSGTDFTLTISSLQPEDFATYYCQQSYSTPYTFGQGTKLEIK	1.41 nM	0.162 nM	0.982 nM	0.356 nM	
ADI-21012 (antibody, V domains shown) VH: QVQLVQSGPAVVKPTQTLTLTCSFSGFSLSTSRMSVSWIRQPPGKALEWLARIDWDGDKYYSTSLKSRLTISKDTSKNQVVLTMTNMDPVDTATYYCARGSYYVSSGYYLNYFDYWGQGTLVTVSS VL: DIRMTQSPSSLSASVGDRVTITCRTSQTIASYLNWYQQKPGKAPNLLIYAASILQTGVPSRFSGSGSGTDFTLTISSLQPEDFATYYCQQSYGTPQTFGQGTKVEIK	0.371 nM	0.214 nM	1.92 nM	0.28 nM	
ADI-21022 (antibody, V domains shown) VH: EVQLVETGPGLVKPSETLSLTCSVSGGSISSYYWSWLRQPPGKGLEWIGYIYNSGRTNYNPSLRSRVTISVDTSQNQFSLRLGSVTAADTAVYYCARGGAGDDLLRGSYRYLNFWGQGTLVTVSS VL: QSVLTQPPSVSVAPGQTARITCGGNNIGSKSVHWYQQKPGQAPVLVVYDDTERPSGIPERISGSNSGNTATLTISRVEAGDEADYYCQVWDSSSDHPDLLFGGGTKLTVL		0.256 nM	17.4 nM	0.357 nM	no binding
ADI-21019 (antibody, V domains shown) VH: EVQLLESGGGLVRPGGSLRLSCAVSGFTFSGNALTWIRRAPGKGLEWVSTIGDSGGGSYYADSVKGRFTISRDNSKSTLYLQMNSLTAEDTAVYYCARDPYGDYRDYYGIDVWGQGTTVTVSS VL: EIVMTQSPLSLPVTPGEPASISCRSSQSLRHSNGYNYVDWYLQKPGQSPQLLIYLGSNRASGVPDRFRGSGSGTDFTLKISRVEAEDVGVYYCMQALQTPLTFGQGTKVEIK	0.182 nM	0.154 nM	0.962 nM	0.168 nM	
ADI-20993 (antibody, V domains shown) VH: EVQLVESGGGVVQPGRSLRLTCAASGFPFSSYAMHWVRQAPGKGLEWVAVTWYDGPNRDYADSVKGRFTVSRDNSKNTLYLQMTSLRADDTAVYYCARRGSWGSFDYWGQGTLVTVSS VL: DIVMTQSPLSLSATPGEPASISCRPSQSLLHSNGYNYLEWYLQKPGQSPQLLIYLGSNRASGVPDRFSGGGSGTDFTLRISRVEADDVGVYYCMQASQTPYTFGQGTKVEIK	1.38 nM	0.168 nM	0.742 nM	0.273 nM	
ADI-21007 (antibody, V domains shown) VH: QVQLVQSGADVKKPGASVKVSCKSSGYTFSNHSMHWVRQAPGQGLEWMGRIHPSSGTTTYAQKFQGRVTMTRDTSTSTVYMEVSSLRSEDTAVYYCARSPFFDFDFWGQGTMVTVSS VL: SYVLTQPHSVSESPGKTVTISCTRSSGSIASNYVQWYQQRPGSAPTSVIYEDNQRPSGVPDRFSGSIDSTSNSASLTISGLKTEDEADYYCQSYYSSGWVFGGGTKLTVL	1.48 nM	0.171 nM	1.72 nM	0.171 nM	
ADI-20990 (antibody, V domains shown) VH: EVQLVESGGGVVQPGRSLRLSCSASGFPFHSYAMHWVRQAPGKGLEWVAGIWYEGSSESYADSVKGRLTISRDNSRNTLYLQMNSLRVEDTAVYYCARRGSFSGFDSWGQGSLVTVSS VL: DIVMTQSPLSLPVTPGEPASISCRSSQSLLHSNGYNYLDWYLQKPGQSPQLLISLGSNRASGVPDRFSGSVAGTDFTLKISRVEAEDVGVYYCMQSSQTPYTFGQGTKVDIK	1.58 nM	0.178 nM	0.904 nM	0.312 nM	
ADI-20996 (antibody, V domains shown) VH: QVQLVESGPALVKPTQTLTLTCTFSGFSLTTRGMCVSWIRQPPGKALEWLARIDWDDDKYYSTSLKTRLTISKDTSKNQVVLTMTNMDPVDTATYYCARASTLTTAGYYLHYKDVWGNGTTVTVSS VL: DIRMTQSPSSLSASVGDRVTITCRASQSIGTYLNWFQQKPGKAPNLLIYAASILHSGVPSRFSGSGSGTDFTLTIRTLQPEDFATYYCQQSYPTVTFGQGTKVEIK	1.03 nM	0.204 nM	1.06 nM	1.12 nM	
ADI-21039 (antibody, V domains shown) VH: EVQLVQSGAEVKKPGASVKVSCKASGYTFISYYIHWVRQAPGQGLEWMGVINPSGGITDYAPKFQGRVSMTRDTSTRTVYLELSSLRSDDTAVYYCARDLCITTSCPRYYDYAWRSYRSEGYFDSWGQGTLVTVSS VL: not shown	1.71 nM	0.24 nM	12.7 nM	6.31 nM	
ADI-21008 (antibody, V domains shown, also called Ab 259) VH: QVQLQESGAGLLKPSETLSLTCTVYGGTFSGYHWNWIRQPPGKGLEWIGEINHRENTDYNASLESRVTISVDTSKRQFSLKMNSVTVADTAVYYCARGIQVLTNLGTEVRVHQFLDLWGRGTLVTVSS VL: DIVLTQTPATLSLSPGERATLSCRASQSVSTYLAWYQQKPGQAPRLLIYDASNRAAGIPARFSGSGSGTDFTLTISSLEPEDFAVYYCQQRTNWLPLTFGGGTKVDIK	5.68 nM	0.918 nM	4.14 nM	1.45 nM	
